In article PMC3651894 (Cell, 2013):

Legend:
[1] = target: T1, full-length FLAG-tagged Dicer (F-Dicer), baculovirus/Sf9 (human, UniProt Q9UPY3 1-1922); assay: SEC
[2] = target: T1, full-length FLAG-tagged Dicer …; assay: pull-down + co-IP
[3] = target: F-DicerΔN1 lacking a part of the DEAD-box RNA helicase domain (human); assay: co-IP
[4] = target: F-DicerΔ3 mutant lacking the DUF283 domain (human); assay: co-IP
F-DicerΔ3 mutant lacking the DUF283 domain (human), sequence (Q9UPY3 whole entry, stated change not applied, the tested form may be a part): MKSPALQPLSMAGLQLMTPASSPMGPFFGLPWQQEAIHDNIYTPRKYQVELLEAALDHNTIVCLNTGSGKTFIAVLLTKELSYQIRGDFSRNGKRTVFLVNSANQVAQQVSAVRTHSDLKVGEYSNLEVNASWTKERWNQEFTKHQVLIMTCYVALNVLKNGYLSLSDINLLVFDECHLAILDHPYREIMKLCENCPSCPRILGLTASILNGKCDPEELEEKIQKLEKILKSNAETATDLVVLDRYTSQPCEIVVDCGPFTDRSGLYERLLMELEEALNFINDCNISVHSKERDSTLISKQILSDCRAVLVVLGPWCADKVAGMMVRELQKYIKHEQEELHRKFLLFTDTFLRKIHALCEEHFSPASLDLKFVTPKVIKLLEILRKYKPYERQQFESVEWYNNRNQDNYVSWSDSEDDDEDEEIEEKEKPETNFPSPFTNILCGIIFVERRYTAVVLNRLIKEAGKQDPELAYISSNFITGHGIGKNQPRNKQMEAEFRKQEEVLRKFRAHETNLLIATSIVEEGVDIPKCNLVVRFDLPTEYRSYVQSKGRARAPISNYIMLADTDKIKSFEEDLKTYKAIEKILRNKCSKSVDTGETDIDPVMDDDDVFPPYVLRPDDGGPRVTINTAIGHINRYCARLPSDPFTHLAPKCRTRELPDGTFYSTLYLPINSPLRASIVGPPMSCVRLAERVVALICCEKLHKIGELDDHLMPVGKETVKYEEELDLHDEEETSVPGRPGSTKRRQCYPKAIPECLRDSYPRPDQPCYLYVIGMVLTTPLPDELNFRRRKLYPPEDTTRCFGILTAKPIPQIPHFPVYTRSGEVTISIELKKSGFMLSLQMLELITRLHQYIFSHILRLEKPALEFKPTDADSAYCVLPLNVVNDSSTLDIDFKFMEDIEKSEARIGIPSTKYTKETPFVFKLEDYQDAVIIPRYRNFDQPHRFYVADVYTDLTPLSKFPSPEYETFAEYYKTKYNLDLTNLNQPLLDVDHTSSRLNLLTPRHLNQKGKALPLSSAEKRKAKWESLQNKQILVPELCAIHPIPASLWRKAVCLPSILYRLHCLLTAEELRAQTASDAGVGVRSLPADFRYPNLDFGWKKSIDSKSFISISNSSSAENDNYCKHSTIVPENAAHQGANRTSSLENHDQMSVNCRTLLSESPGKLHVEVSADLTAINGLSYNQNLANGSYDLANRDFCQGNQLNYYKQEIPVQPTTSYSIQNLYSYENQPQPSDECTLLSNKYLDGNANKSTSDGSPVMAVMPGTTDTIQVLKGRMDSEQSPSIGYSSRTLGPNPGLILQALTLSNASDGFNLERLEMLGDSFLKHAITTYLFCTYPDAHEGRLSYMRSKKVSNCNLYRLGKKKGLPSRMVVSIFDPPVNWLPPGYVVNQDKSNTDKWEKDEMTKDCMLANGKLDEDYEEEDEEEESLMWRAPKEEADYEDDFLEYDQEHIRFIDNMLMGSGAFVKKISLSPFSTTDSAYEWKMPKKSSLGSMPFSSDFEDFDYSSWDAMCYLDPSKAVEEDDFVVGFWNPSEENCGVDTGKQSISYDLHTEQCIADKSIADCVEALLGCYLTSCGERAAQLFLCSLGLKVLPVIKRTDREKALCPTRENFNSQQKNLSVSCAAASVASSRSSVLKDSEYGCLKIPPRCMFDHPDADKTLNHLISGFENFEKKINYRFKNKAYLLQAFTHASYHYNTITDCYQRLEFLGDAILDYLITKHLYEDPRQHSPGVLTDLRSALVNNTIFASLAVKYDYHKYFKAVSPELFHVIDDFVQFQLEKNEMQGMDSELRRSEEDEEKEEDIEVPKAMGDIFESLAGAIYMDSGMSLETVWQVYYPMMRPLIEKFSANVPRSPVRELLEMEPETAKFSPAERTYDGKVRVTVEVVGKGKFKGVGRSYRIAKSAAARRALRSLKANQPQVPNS

T1 sequence (Q9UPY3 whole entry): as the sequence (Q9UPY3 whole entry, stated change not applied, the tested form may be a part) above
F-DicerΔN1 lacking a part of the DEAD-box RNA helicase domain (human), sequence (Q9UPY3 whole entry, stated change not applied, the tested form may be a part): as above

B1: full-length HAT (histidine affinity tag)-tagged ADAR1p110 (H-ADAR1p110), baculovirus/Sf9 (natural protein, human, UniProt P55265-5 1-931, looked up)
chain: MAEIKEKICDYLFNVSDSSALNLAKNIGLTKARDINAVLIDMERQGDVYRQGTTPPIWHLTDKKRERMQIKRNTNSVPETAPAAIPETKRNAEFLTCNIPTSNASNNMVTTEKVENGQEPVIKLENRQEARPEPARLKPPVHYNGPSKAGYVDFENGQWATDDIPDDLNSIRAAPGEFRAIMEMPSFYSHGLPRCSPYKKLTECQLKNPISGLLEYAQFASQTCEFNMIEQSGPPHEPRFKFQVVINGREFPPAEAGSKKVAKQDAAMKAMTILLEEAKAKDSGKSEESSHYSTEKESEKTAESQTPTPSATSFFSGKSPVTTLLECMHKLGNSCEFRLLSKEGPAHEPKFQYCVAVGAQTFPSVSAPSKKVAKQMAAEEAMKALHGEATNSMASDNQPEGMISESLDNLESMMPNKVRKIGELVRYLNTNPVGGLLEYARSHGFAAEFKLVDQSGPPHEPKFVYQAKVGGRWFPAVCAHSKKQGKQEAADAALRVLIGENEKAERMGFTEVTPVTGASLRRTMLLLSRSPEAQPKTLPLTGSTFHDQIAMLSHRCFNTLTNSFQPSLLGRKILAAIIMKKDSEDMGVVVSLGTGNRCVKGDSLSLKGETVNDCHAEIISRRGFIRFLYSELMKYNSQTAKDSIFEPAKGGEKLQIKKTVSFHLYISTAPCGDGALFDKSCSDRAMESTESRHYPVFENPKQGKLRTKVENGEGTIPVESSDIVPTWDGIRLGERLRTMSCSDKILRWNVLGLQGALLTHFLQPIYLKSVTLGYLFSQGHLTRAICCRVTRDGSAFEDGLRHPFIVNHPKVGRVSIYDSKRQSGKTKETSVNWCLADGYDLEILDGTRGTVDGPRNELSRVSKKNIFLLFKKLCSFRYRRDLLRLSYGEAKKAARDYETAKNYFKKGLKDMGYGNWISKPQEEKNFYLCPV
For B1, the “stoichiometry N” value [1] was 1 ADAR1 per Dicer, the “stoichiometry N” value [2] was about 1 ADAR1 per Dicer and the fold reduction of interaction against full-length F-Dicer [3] was under 4 fold. It also gave a fold reduction of interaction against full-length F-Dicer [4] of under 4 fold.
